We go through 17 molecules from patent US20180334496A1 (KODIAK SCIENCES, published 2018).

Substitutions are numbered along the chain they refer to.

For orientation: Kd means the free concentration of one partner at which half of the binding sites on the other are occupied at equilibrium, for simple one-to-one binding.

What all share (assay): SPR MX96
Assay [1] addresses T1, recombinant human CFD mutant 1 (R157A, R207A), His-tagged (human, UniProt P00746 26-253).
T1 construct: positions are linear positions in the mature protein; also called rhCFD-mut1-His; Mut1

The target of assay [2] is T2, recombinant human CFD, His-tagged (human, UniProt P00746 26-253).
T2 construct: also called rhCFD-His
T2 sequence (P00746 26-253 limits assumed): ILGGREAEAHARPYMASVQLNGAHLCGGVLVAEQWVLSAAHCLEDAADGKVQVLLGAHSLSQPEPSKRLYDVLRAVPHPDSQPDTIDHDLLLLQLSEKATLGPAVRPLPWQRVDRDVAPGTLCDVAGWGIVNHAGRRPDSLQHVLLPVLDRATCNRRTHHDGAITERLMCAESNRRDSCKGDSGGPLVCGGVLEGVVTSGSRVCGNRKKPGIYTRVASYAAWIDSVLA

Assay [3] deals with T3, human complement factor D purified from serum (human, UniProt P00746 26-253).
T3 construct: serum-purified (CompTech); also called hCFD-Comptech; CFD
T3 sequence (P00746 26-253): as the sequence (P00746 26-253 limits assumed) above

For assay [4], the target named is T4, recombinant cynomolgus CFD, His-tagged (cynomolgus).
T4 construct: also called rcyCFD-His; recombinant Cyno-CFD

T1 sequence (P00746 26-253 R182A/R232A limits assumed): as the sequence (P00746 26-253 limits assumed) above, with R157A, R207A counted along it

B1: KCD128 (antibody, V domains shown)
VH: QVQLQQPGAELVRPESSVKLSCKASGYTFTSYWMDWVMQRPGQGLEWIGNIYPSGSETHYNQKFKDKATLTVDKSSTTAYMQLSSLTFEDSAVYYCARSGFIGSRYLYYFDYWGQGTTLTVSS
VL: DIVMTQSHKFMSTSVGDRVTITCKASQDVSNAVAWYQLKPGQSPKLLIYSASYRYTGVPDRFTGSGSGTDFTFTISSVQAADLAVYYCQQHYITPYTFGGGTKLEIK
Turning to B1, the Kd turned out to be 13 nM in assay [1], 14 nM in assay [2], 14 nM in assay [3] and 3.3 nM in assay [4].

B2: KCD013 (antibody, V domains shown)
VH: EVQLQQSGAELVKPGASVKLSCTASGFKIKDTYMHWVKERPDQGLEWIGRIDPANGNTKYDPKFQGKATITADTSSNTAYLQLSSLTSEDTAVYYCANAMDYWGQGTSVTVSS
VL: QIILTQSPAIMSASPGEKVTMTCSASSSVSNMYWYQQKPGSSPRLLIYDTSNLASGVPVRFSGSGSGASYSLTISRMEAEDAATYYCQQWSSYPWTFGGGTKLEIK
With B2, the Kd in assay [1] came out at 19 nM; in assay [2] it was 11 nM; in assay [3] it was 7.3 nM; in assay [4] it was 93 nM.

B3: KCD015 (antibody, V domains shown)
VH: EVQLQQSGAELVKPGASVKLSCTASGFNIKDTYMHWVKQRPEQGLEWIGRIDPANGYTEYDPKFQGKATITADTSSNTAYLQLSSLTSEDSAAYYCTSAMEFWGQGTSVTVSS
VL: B2 VL with I3V, M11L, N31Y, M32I, G40R, A68T, W95F, I105V
Regarding B3, the Kd came to 3.7 nM in assay [1], 4.5 nM in assay [2], 6.2 nM in assay [3] and 250 nM in assay [4].

B4: KCD230 (antibody, V domains shown)
VH: QVQLQQPGTELVKPGASVKLPCKASGYTFTSYWMQWVKQRPGQGLEWIGEIDPSDTYINYNQKFKGKATLTVDTSSTTAYMQLSSLTSEDSAVYYCARYTTIMASDYWGQGTTLTVSS
VL: DIQMTQTTSSLSVSLGDRVTISCRASQDITNYLNWYQQKPDGTVKLLIYFTSRLHSGVPSRFSGSGSGTDYSLTISNLEPEDIATYYCQQYSKLPWTFGGGTKLEIK
Regarding B4, the Kd in assay [1] was 0.88 nM; in assay [2], 1.6 nM; in assay [3], 2.5 nM; in assay [4] it was 2.7 nM.

B5: KCD062 (antibody, V domains shown)
VH: EVKLVESGGGLVQPGGSLKLSCAASGFTFSTYIMSWVRQTPEKRLEWVAYITSGGSSTYYPDTVKGRFTISRDNAKSTLYLQMSSLKSEDTAMYYCARHAHFYAMDYWGQGTSVTVSS
VL: DIQMTQSPSSLSASLGGKVTITCKASQDINKYIAWYQHKPGKGPRLLIHYTSTLQPGIPSRFSGSGSGRDYSFSISNLEPEDIATYYCLQYDNLLYTFGGGTKLEIK
In the case of B5, the Kd in assay [1] turned out to be 62 nM; in assay [2], 32 nM; in assay [3] it was 24 nM; in assay [4], 19 nM.

B6: KCD064 (antibody, V domains shown)
VH: B5 VH with T31S, E46G, S56G, S77N, A100G, H101T, F102G
VL: B5 VL with K103E
On to B6, for which the Kd in assay [1] worked out at 37 nM; in assay [2] it was 20 nM; in assay [3], 20 nM; in assay [4], 15 nM.

B7: KCD225 (antibody, V domains shown)
VH: QVQLQQSGPELVKPGASVKISCKASGYTFTDYYINWMKQRPGQGLEWIGWIFPGSDSTYYNEKFKGKATLTVDKSSSTAYMLLSSLTSEDSAVYFCARLGYYSHSYYAMDYWGQGTSVTVSS
VL: DIQMTQSPASLSVSTGETVTITCRASENIYSNLAWFQQKQGKSPQLLVYAATNLADGVPSRFSGSGSGTQYSLKITSLQSEDFGSYYCQHFWGTPLTFGAGTKLDLK
On to B7, for which the Kd came out at 6.2 nM in assay [1], 5 nM in assay [2], 8.7 nM in assay [3] and 46 nM in assay [4].

B8: KCD132 (antibody, V domains shown)
VH: QVQLQQSGPELVKPGASVKISCKASGYSFTDYYINWVKQRPGQGLEWIGWIFPGSGSTYYNEKFKGKATLTVDKSSSTAYMLLSSLTSEDSAVYFCARTGYYSNLYAVDYWGQGTSVTVSS
VL: B7 VL with T15V, F36Y, A50V, T76N, S85N, L96Y, A100G, D105E, L106M, K107R
For the molecule B8, the Kd turned out to be 1.4 nM in assay [1], 1.6 nM in assay [2], 2.6 nM in assay [3] and 8 nM in assay [4].

B9: KCD219 (antibody, V domains shown)
VH: B7 VH with M37V, D56G, T87P, L99Y, S103G, H104S, Y106F
VL: B7 VL with T15V, F36Y, T76N, T94S, L96P, A100G, D105E, L106I
Take B9: the Kd in assay [1] worked out at 3.6 nM; in assay [2], 3 nM; in assay [3], 4.3 nM; in assay [4], 12 nM.

B10: KCD033 (antibody, V domains shown)
VH: EVQLQQSGPELVKPGASMKISCTASGYSFTGYTMTWVKQSHGKNLEWIGLINPYNGGTNYNQKFKGKATLTVDKSSSIAYMELLSLTSEDSAVYYCARRHYGSNWDYWGQGTTLTVSS
VL: DIKLTQSPSSIYTSLGERVTITCKASQDINTYLSWFQQRPGKSPKTLIYRADRLVDGVPSRVRGSGSGQDYSLTISSLEYEDMGIYYCLQYDEFPYTFGGGTKLEIK
On to B10, for which the dissociation constant (Kd) in assay [1] was found to be 28 nM; in assay [2], 19 nM; in assay [3] it was 11 nM; in assay [4], 93 nM.

B11: KCD036 (antibody, V domains shown)
VH: B10 VH with T23K, L70F, I78T, N104S
VL: B10 VL with I11M, T13A, R39K, D52N, V62F, R63S, D82E
notes: chimeric
On to B11, for which the Kd was 80 nM in assay [1], 29 nM in assay [2], 26 nM in assay [3] and 64 nM in assay [4].

B12: KCD139 (antibody, V domains shown)
VH: EVQLQQSGAELVRPGSSVKMSCKTSGYTFTSYGINWVKQRPGQGLEWIGYIYIANGYTENNEKFKGKAKLTSDISSSTAYMQLSSLTSEDSAIYFCARRFDYAGALDYWGQGTSVTVSS
VL: DIVLTQSPASLAVSLGQRATISCRASESVDSYGNSFMHWYQQKPGQPPKLLIHRASNLESGIPARFSGSGSRTDFTLTINPVEADDVAIYYCQQTNDDPYTFGGGTNLEIK
B12: the Kd stood at 3.5 nM in assay [1], 3.3 nM in assay [2], 5.3 nM in assay [3] and 3.8 nM in assay [4].

B13: KCD075 (antibody, V domains shown)
VH: QVQLLQPGAELVRPGTSVKLSCKASGYTFSNYWINWVKQRPGQGLEWIGNIYPSDSSINYNQKFKDKATLTVDKSSTTAYMQLSSPTSEDSAVYYCTGTDWYFDVWGAGTTVTVSS
VL: DIQMTQTTSSLSASLGDRVTISCSGGQGISNYLNWYQQKPDGTFKLLIYYTSTLHSGVPSRFSGSGSGTDYSLTISNLEPEDVATYYCQQYSKLPYTFGGGTKLEIK
With B13, the dissociation constant (Kd) in assay [1] was determined as 3.4 nM; in assay [2] it was 2.5 nM; in assay [3], 3.7 nM; in assay [4], 3.2 nM.

B14: KCD022 (antibody, V domains shown)
VH: DVQLQESGPDLVKPSQSLSLTCTVTGYSITSGYSWHWIRQFPGNTLEWMGYIHYSGSTNYNPSLESRISFTRDTSKNQFFLQLNSVTTEDTATYYCALHFYGYNLGWYFDVWGAGTTVTVSS
VL: DIVMTQSHKFMSTSIGDRVIITCKASQDVGTTVAWYQQRPGQSPKLLIYWASTRHTAVPDRFTGSGSGTDFTLTISNVQSEDLADYFCQQYTSYPLTFGAGTQLELK
For B14, the Kd in assay [1] came to 110 nM; in assay [2] it was 83 nM; in assay [3], 57 nM; in assay [4] it was 54 nM.

B15: KCD137 (antibody, V domains shown)
VH: EVQLVESGGDLVKPGGSLKLSCAASGFTFSGYGMSWVRQIPDKRLEWVAISSRDNSFTYYPDSVKGRFTISRDNAKNTLYLQMSSLKSEDTALYFCTRHPYLPTGGYVMDYWGQGTSVTVSS
VL: B14 VL with I15V, I20S, T32A, A57G, I75V, Q103K
B15: the Kd in assay [1] was found to be 4.6 nM; in assay [2], 5.5 nM; in assay [3] it was 0.5 nM; in assay [4] it was 5.9 nM.

B16: KCD001 (antibody, V domains shown)
VH: EVQLQQSGPELVKPGASVKISCKASDNSFTGYYMHWVKQSHGNILDWIGYIDPYNGVSSYNQKFKGKATLTVDKSSSTAYMEIRSLTSEDSAVYYCASYYGSSPYWYFDVWGTGTTVTVSS
VL: QIVLSQSPAILSASPGEKVTMTCRASSSVSYMHWYQQKPGSSPKPWIYATSNLASGVPARFSGSGSGTSHFLTISRLEAEDAATYFCQQWSSNPYTFGGGTKLEIK
Take B16: the Kd in assay [1] was found to be 0.19 nM; in assay [2], 0.22 nM; in assay [3] it was 0.22 nM; in assay [4] it was 0.63 nM.

B17: KCD110 (antibody, V domains shown)
VH: B16 VH with D26G, N27Y, Y54D, Y60K, K65T, L70V, V72A, I83L, S98G, P104W
VL: B16 VL with H70Y, F71S, L77V, F86Y
As for B17, the Kd in assay [1] is 4.1 nM; in assay [2], 2 nM; in assay [3], 3.7 nM; in assay [4], 5.3 nM.
